In patent US20240043517 (published 2024):
Substitutions are numbered along the chain they refer to.

How the values were obtained:
Test in all cases: SPR
rat GDF-15 = target: T1, rat GDF-15 (rat, UniProt Q9Z0J6)
T1 chain: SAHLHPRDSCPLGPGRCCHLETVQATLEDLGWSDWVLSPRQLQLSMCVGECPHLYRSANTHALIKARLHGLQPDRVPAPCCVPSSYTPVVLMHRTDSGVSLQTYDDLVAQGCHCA

human GDF-15 = target: T2, human GDF-15 (human, UniProt Q99988)
T2 chain: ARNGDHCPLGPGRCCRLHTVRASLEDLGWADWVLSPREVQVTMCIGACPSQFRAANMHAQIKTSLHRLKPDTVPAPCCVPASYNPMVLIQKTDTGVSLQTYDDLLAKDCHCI

mouse GDF-15 = target: T3, mouse GDF-15 (mouse, UniProt Q9Z0J7)
T3 chain: T1 chain with L4A, L63Q, R75K, Q110R

cynomolgus GDF-15 = target: T4, cynomolgus GDF-15 (cynomolgus monkey, UniProt G7PWZ3)
T4 chain: T2 chain with H6R, R21H, A54E, T63M, S64N, I112V

- Kd (rat GDF-15): 0.449 nM
- Kd (human GDF-15): 0.0383 nM
- Kd (mouse GDF-15): 9.76 nM
- Kd (cynomolgus GDF-15): 0.108 nM
B1: CTL-002 (antibody, V domains shown)
VH: QITLKESGPTLVKPTQTLTLTCTFSGFSLSTSGMGVSWIRQPPGKGLEWLAHIYWDDDKRYNPTLKSRLTITKDPSKNQVVLTMTNMDPVDTATYYCARSSYGAMDYWGQGTLVTVSS
VL: DIVLTQSPSFLSASVGDRVTITCKASQNVGTNVAWFQQKPGKSPKALIYSASYRYSGVPDRFTGSGSGTEFTLTISSLQPEDFAAYFCQQYNNFPYTFGGGTKLEIKR
